Data reported in patent publication US20050227220A1, “Compositions and Methods for Evaluating and Designing Nuclear Receptor Ligands that Modulate Co-Regulator Affinity” (priority 2002, published 2005).
Primed or numbered codes have the meaning given here. No end group written: not given here. *: point of attachment. fluorescein″ = fluorescein label attached to the peptide N-terminus; Biotin = O=C1N[C@H]2[C@H](CS[C@H]2CCCCC(=O)*)N1

B1: SRC-1 peptide (amino acids 676-700) (peptide)
peptide: Biotin-CPSSHSSLTERHKILHRLLQEGSPS
modifications: also: fluorescent label in polarization assay, not given here
notes: also called SRC-1 (LCD2) 676-700; SRC peptide
B2: TRβ ligand binding domain (receptor, UniProt P10828 202-461, looked up)
chain: EELQKSIGHKPEPTDEEWELIKTVTEAHVATNAQGSHWKQKRKFLPEDIGQAPIVNAPEGGKVDLEAFSHFTKIITPAITRVVDFAKKLPMFCELPCEDQIILLKGCCMEIMSLRAAVRYDPESETLTLNGEMAVTRGQLKNGGLGVVSDAIFDLGMSLSSFNLDDTEVALLQAVLLMSSDRPGLACVERIEKYQDSFLLAFEHYINYRKHHVTHFWPKLLMKVTDLRMIGACHASRFLHMKVECPTELFPPLFLEVFED
notes: also called Thyroid Receptor LBD; TRβ LBD
B3: VP16-human PPARγ2 (full length) (other)
chain: LSTAPPTDVSLGDELHLDGEDVAMAHADALDDFDLDMLGDGDSPGPGFTPHDSAPYGALDMADFEFEQMFTDALGIDEYGGMGETLGDSPIDPESDSFTDTLSANISQEMTMVDTEMPFWPTNFGISSVDLSVMEDHSHSFDIKPFTTVDFSSISTPHYEDIPFTRTDPVVADYKYDLKLQEYQSAIKVEPASPPYYSEKTQLYNKPHEEPSNSLMAIECRVCGDKASGFHYGVHACEGCKGFFRRTIRLKLIYDRCDLNCRIHKKSRNKCQYCRFQKCLAVGMSHNAIRFGRMPQAEKEKLLAEISSDIDQLNPESADLRALAKHLYDSYIKSFPLTKAKARAILTGKTTDKSPFVIYDMNSLMMGEDKIKFKHITPLQEQSKEVAIRIFQGCQFRSVEAVQEITEYAKSIPGFVNLDLNDQVTLLKYGVHEIIYTMLASLMNKDGVLISEGQGFMTREFLKSLRKPFGDFMEPKFEFAVKFNALELDDSDLAIFIAVIILSGDRPGLLNVKPIEDIQDNLLQALELQLKLNHPESSQLFAKLLQKMTDLRQIVTEHVQLLQVIKKTETDMSLHPLLQEIYKDLY
B5: GAL4-NcoR (2239-2300) (other)
chain: MKLLSSIEQACDICRLKKLKCSKEKPKCAKCLKNNWECRYSPKTKRSPLTRAHLTEVESRLERLEQLFLLIFPREDLDMILKMDSLQDIKALLTGLFVQDNVNKDAVTDRLASVETDMPLTLRQHRISATSSSEESSNKGQRQLTVSPAVTTSGSVSSRGHSFADPASNLGLEDIIRKALMGSFDDKVEDHGVVMSQPMGVVPGTANTS
notes: range 1-147;range 2239-2300; also called GAL4-NCoR 2239 to 2300

Experiments:
[1] = target: Fluoroscein-NCOR ID-C peptide (NCoR amino acids 2251-2275); assay: fluorescence polarization
[2] = target: Fluoroscein-SMRT ID-C peptide; assay: fluorescence polarization
[3] = target: Fluoroscein-NCOR ID-C peptide (NCoR amino acids 2251-2275); assay: fluorescence polarization, 10 nM fluorescein peptide, LBD titrated, no ligand
[4] = target: Fluoroscein-SMRT ID-C peptide; assay: as above
[5] = target: B2; assay: fluorescence polarization, apparent affinity, no ligand
[6] = target: T1, Fluoroscein-NCOR ID-C peptide (NCoR amino acids 2251-2275) (N-terminal fluorescein); assay: fluorescence polarization, no ligand
T1 construct: also called NCOR peptide; NCoR 2251-2275
T1 peptide: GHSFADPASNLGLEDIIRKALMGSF

[7] = target: T1, Fluoroscein-NCOR ID-C peptide (NCoR …); assay: fluorescence polarization, with agonist ligand T3
[8] = target: B1; assay: fluorescence polarization, with agonist ligand T3
GAL4-CBP (1-115) = GAL4-CBP (1-115) (UniProt P04386 1-147; P45481 1-115); assay: cell-based or functional assay
GAL4-NcoR (2239-2300) = target: B5; assay: cell-based or functional assay
[9] = target: T2, human PPARγ ligand binding domain (amino acids 206-477) (human, UniProt P37231-2 206-477); assay: fluorescence polarization, 10 nM fluorescein peptide, LBD titrated, no ligand
T2 construct: range 206-477; placed at the N-terminus here; Biotinylated for FRET; also called PPARγ LBD
T2 sequence: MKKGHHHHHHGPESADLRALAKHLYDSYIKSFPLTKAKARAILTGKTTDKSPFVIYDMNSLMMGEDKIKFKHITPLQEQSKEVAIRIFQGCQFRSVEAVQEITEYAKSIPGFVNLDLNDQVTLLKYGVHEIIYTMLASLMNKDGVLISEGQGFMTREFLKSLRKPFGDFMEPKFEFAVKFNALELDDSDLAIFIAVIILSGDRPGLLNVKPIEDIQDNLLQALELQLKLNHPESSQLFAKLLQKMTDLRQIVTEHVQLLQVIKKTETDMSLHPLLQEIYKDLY

[10] = target: T3, human PPARδ ligand binding domain (amino acids 139-441) (human, UniProt Q03181 139-441, Biotinylated (site not stated) in the FRET assays; unlabelled in fluorescence polarization and SPR.); assay: as above
T3 construct: placed at the N-terminus here; Biotinylated for FRET; also called PPARδ LBD
T3 sequence: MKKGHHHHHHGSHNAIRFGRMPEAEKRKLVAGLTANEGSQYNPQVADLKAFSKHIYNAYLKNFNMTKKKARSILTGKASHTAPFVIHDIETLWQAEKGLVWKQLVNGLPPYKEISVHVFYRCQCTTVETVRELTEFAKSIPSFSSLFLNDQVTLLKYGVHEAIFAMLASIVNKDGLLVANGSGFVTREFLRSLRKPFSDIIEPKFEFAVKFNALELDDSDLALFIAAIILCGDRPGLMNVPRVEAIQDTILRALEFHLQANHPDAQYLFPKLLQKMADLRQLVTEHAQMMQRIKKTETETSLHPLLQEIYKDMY

[11] = target: T4, RXRα ligand binding domain (amino acids 225-462) (UniProt P19793 225-462); assay: as above
T4 construct: range 225-462; Biotinylated for FRET; also called RXRα LBD; not shown: His-tag
T4 sequence (looked up): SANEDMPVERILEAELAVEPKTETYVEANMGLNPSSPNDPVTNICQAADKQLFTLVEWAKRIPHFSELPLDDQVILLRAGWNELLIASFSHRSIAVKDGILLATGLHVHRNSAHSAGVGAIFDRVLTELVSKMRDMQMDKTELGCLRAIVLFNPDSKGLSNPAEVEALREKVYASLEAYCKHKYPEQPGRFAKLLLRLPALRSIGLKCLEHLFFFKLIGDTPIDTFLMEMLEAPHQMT

[12] = target: T5, ERβ ligand binding domain (amino acids 257-530) (UniProt Q92731 257-530); assay: as above
T5 construct: range 257-530; not shown: His-tag

[13] = target: B2; assay: as above
[14] = target: T6, RARα ligand binding domain (amino acids 146-432) (UniProt P10276 146-432); assay: as above
T6 construct: range 146-432; not shown: His-tag
T6 sequence (looked up): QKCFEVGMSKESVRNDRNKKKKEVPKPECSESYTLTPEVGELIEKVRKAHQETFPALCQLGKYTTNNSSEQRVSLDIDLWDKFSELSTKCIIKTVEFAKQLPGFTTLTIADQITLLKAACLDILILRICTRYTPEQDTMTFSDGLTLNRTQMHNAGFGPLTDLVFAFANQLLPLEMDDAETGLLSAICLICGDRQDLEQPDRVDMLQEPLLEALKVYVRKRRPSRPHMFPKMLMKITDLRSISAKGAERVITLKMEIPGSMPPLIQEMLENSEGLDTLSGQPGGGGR

[15] = target: T7, human PPARα ligand binding domain (amino acids 192-468) (human, UniProt Q07869 192-468); assay: as above
T7 construct: range 192-468; placed at the N-terminus here; Biotinylated for FRET; also called PPARα LBD
T7 sequence: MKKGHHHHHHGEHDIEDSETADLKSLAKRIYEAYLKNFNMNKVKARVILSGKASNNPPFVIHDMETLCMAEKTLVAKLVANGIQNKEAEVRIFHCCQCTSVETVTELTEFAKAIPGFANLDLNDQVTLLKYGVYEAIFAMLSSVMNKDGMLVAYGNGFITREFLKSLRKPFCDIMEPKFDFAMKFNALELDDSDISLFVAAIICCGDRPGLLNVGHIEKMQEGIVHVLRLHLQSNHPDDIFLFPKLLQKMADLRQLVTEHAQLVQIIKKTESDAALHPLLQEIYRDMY

[16] = target: T8, biotin-NCOR ID-C peptide (NCoR amino acids 2251-2275) (N-terminal biotin); assay: time-resolved FRET (ratio 665 nm/620 nm), biotinylated NCOR (2251-2275) peptide on europium streptavidin with APC-labeled LXRα LBD, test compound at 2 µM; normalized to % inhibition or activation
T8 construct: also called NCOR-derived co-repressor peptide
T8 peptide: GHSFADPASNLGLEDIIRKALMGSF

[17] = target: T9, VP16-human PPARα (full length) (human, UniProt P06492 410-490; Q07869 1-468); assay: mammalian two-hybrid in CV-1 cells
T9 construct: also called VP16 full length PPARα

[18] = target: B3; assay: mammalian two-hybrid in CV-1 cells

T5 sequence (Q92731 257-530 limits assumed): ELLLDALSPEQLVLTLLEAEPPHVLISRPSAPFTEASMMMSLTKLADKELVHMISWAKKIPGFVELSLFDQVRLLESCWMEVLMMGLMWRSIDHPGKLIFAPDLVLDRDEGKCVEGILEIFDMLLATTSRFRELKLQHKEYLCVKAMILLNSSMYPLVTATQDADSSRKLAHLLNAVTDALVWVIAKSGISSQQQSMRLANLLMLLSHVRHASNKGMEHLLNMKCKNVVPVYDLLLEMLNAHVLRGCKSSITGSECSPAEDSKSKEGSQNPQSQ

RXRαΔAF2 ligand binding domain (amino acids 225-446) (from UniProt P19793 225-446) (receptor)
fold greater affinity against RXRα ligand binding domain [1]: 100 fold
fold greater affinity against RXRα ligand binding domain [2]: 100 fold
Kd [3]: 0.39 µM
Kd [4]: 0.25 µM

B1
Kd [5]: 7.1 µM

B2
fold greater affinity against the coactivator peptide (SRC-1) [6]: 10 fold
fold decrease in affinity with T3 against no ligand [7]: 9 fold
fold greater affinity against the co-repressor peptide (NCoR ID-C) [8]: 48 fold
fold increase in affinity with T3 against no ligand [8]: 50 fold

B3
mammalian two-hybrid reporter, fold association with GW1929 and GW7845 (GAL4-CBP (1-115)): ~3 fold
mammalian two-hybrid reporter, fold dissociation with GW1929 and GW7845 (GAL4-NcoR (2239-2300)): ~3 fold

{fluorescein″}-TNMGLEAIIFKALMGKYDQWEE [Fluoroscein-SMRT ID-C peptide]
Kd [9]: 1.8 µM
Kd [10]: 7.7 µM
Kd [11]: 20 µM
Kd [12]: 30 µM
Kd [13]: 0.74 µM
Kd [14]: 2.1 µM
Kd [15]: 6.1 µM

B4: LXR alpha LBD (receptor, not shown: small tags and cut ends)
chain: EEEQAHATSLPPRASSPPQILPQLSPEQLGMIEKLVAAQQQCNRRSFSDRLRVTPWPMAPDPHSREARQQRFAHFTELAIVSVQEIVDFAKQLPGFLQLSREDQIALLKTSAIEVMLLETSRRYNPGSESITFLKDFSYNREDFAKAGLQVEFINPIFEFSRAMNELQLNDAEFALLIAISIFSADRPNVQDQLQVERLQHTYVEALHAYVSIHHPHDRLMFPRMLMKLVSLRTLSSVHSEQVFALRLQDKKLPPLLSEIWDVHE
modifications: Biotinylated and bound to streptavidin-APC in the assay; His-tag not written
notes: also called LXRα
binding result [16]: binds

B5
binding result [17]: binds
binding result [18]: binds
